Molecular target: T1, Biotin-HSA (human, UniProt P02768, biotinylated (sites and number not given))
T1 construct: biotinylated, without the compound; not further described; also called biotinylated-HSA; biotinylated human albumin
Assay: binding of biotinylated HSA without compound to transfected HEK293 cells, detected with avidin-alkaline phosphatase

T1 sequence (P02768 25-609 limits assumed): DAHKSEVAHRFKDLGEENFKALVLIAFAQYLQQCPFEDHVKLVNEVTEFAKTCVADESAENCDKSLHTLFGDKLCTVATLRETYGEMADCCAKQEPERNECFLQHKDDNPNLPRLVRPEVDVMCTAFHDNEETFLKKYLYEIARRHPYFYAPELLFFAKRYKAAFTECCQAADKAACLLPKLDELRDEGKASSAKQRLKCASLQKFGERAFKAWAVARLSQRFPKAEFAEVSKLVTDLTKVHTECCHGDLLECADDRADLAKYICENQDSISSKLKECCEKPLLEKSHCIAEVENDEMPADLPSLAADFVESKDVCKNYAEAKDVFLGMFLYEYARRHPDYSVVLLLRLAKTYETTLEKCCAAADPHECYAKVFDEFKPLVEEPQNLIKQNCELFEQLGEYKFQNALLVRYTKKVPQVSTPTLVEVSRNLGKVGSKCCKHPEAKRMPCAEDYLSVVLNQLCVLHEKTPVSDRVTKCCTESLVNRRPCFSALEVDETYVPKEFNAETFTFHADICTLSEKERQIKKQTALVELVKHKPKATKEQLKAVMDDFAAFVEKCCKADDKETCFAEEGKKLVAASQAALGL

B1: R-PLXDC1 (full length human PLXDC1 with an epitope tag at the N-terminus, on transfected cells) (receptor, not shown: small tags and cut ends)
chain: LSPQPGAGHDEGPGSGWAAKGTVRGWNRRARESPGHVSEPDRTQLSQDLGGGTLAMDTLPDNRTRVVEDNHSYYVSRLYGPSEPHSRELWVDVAEANRSQVKIHTILSNTHRQASRVVLSFDFPFYGHPLRQITIATGGFIFMGDVIHRMLTATQYVAPLMANFNPGYSDNSTVVYFDNGTVFVVQWDHVYLQGWEDKGSFTFQAALHHDGRIVFAYKEIPMSVPEISSSQHPVKTGLSDAFMILNPSPDVPESRRRSIFEYHRIELDPSKVTSMSAVEFTPLPTCLQHRSCDACMSSDLTFNCSWCHVLQRCSSGFDRYRQEWMDYGCAQEAEGRMCEDFQDEDHDSASPDTSFSPYDGDLTTTSSSLFIDSLTTEDDTKLNPYAGGDGLQNNLSPKTKGTPVHLGTIVGIVLAVLLVAAIILAGIYINGHPTSNAALFFIERRPHHWPAMKFRSHPDHSTYAEVEPSGHEKEGFMEAEQC
notes: also called TEM7
  binding result: no binding

From patent US20210147525A1 (University of California, published 2021)
